Assay results reported in patent US20090274696A1, “METHODS FOR TREATING INFLAMMATION” (WYETH, priority 2008, published 2009).

Test system: mouse tracheal epithelium cells (MTEC)
Test: MTEC apoptosis, Cell Death Detection ELISAplus
Type: cell-based
Protocol: MTEC culture was performed by following the protocol of You et al. (“Growth and differentiation of mouse tracheal epithelial cells: selection of a proliferative population,” Am J Physiol Lung Cell Mol Physiol, 2002, 283:L 1315-1321) with minor modification. Briefly, tracheas were incubated in 1.5 mg/mL pronase (Roche Molecular Biochemicals) for 18 h at 4° C. Cells were treated with 0.5 mg/mL crude pancreatic DNase I (Sigma-Aldrich) on ice for 5 min. After incubation in tissue culture plates for 3-4 h in 5% CO2 at 37° C., nonadherent cells were incubated in a plate coated with type I rat tail collagen (BD Biosciences) in modified BEBM (Lonza, Md. USA) containing 10 μg/ml insulin, 5 μg/ml transferrin, 25 ng/ml epidermal growth factor, 5 μg/ml epinephrine and 30 μg/ml bovine pituitary extract, 0.5 nM Hydrocortisone, 25 ng/ml hEGF, 15 nM Triiodothyronine, 0.25 μg/ml Gentamicin/amphotericin-B and 0.01 μM retinoic acid in 5% CO2 at 37° C. […]
Apoptotic MTEC death was examined using Cell Death Detection ELISAplus (Roche) according to the manufacturer's instructions and calculated as an index of a fold change over a control. […] Quantitation of histone-associated-DNA-fragments in supernatants of MTEC cultures (5×10^4/mL) treated with PBS, 0.1 ng/mL LPS or 100 nM rFIZZ1 was performed at an absorbance of 405-490 nm.

B1: rFIZZ1: recombinant FIZZ1 (Leinco Technologies), mouse FIZZ1 protein, resistin-like molecule-α (protein, listed as Mus musculus)
chain: MKTTTCSLLICISLLQLMVPVNTDETIEIIVENKVKELLANIPANYPSTVTKTLSCTSVKTMNRWASCPAGMTATGCACGFACGSWEIQSGDTCNCLCLLV
modifications: (1)..(101) Murine FIZZ1 polypeptide
MTEC apoptosis (apoptosis index) (100 nM rFIZZ1, all time points, compared to LPS treatment, N=3): significant increased | start of increase in cell death, time of incubation (FIZZ1-treated MTEC): 3 h
